Target: ogt1_human OGT (UniProt O15294)
UniProt O15294, sequence (O15294 whole entry): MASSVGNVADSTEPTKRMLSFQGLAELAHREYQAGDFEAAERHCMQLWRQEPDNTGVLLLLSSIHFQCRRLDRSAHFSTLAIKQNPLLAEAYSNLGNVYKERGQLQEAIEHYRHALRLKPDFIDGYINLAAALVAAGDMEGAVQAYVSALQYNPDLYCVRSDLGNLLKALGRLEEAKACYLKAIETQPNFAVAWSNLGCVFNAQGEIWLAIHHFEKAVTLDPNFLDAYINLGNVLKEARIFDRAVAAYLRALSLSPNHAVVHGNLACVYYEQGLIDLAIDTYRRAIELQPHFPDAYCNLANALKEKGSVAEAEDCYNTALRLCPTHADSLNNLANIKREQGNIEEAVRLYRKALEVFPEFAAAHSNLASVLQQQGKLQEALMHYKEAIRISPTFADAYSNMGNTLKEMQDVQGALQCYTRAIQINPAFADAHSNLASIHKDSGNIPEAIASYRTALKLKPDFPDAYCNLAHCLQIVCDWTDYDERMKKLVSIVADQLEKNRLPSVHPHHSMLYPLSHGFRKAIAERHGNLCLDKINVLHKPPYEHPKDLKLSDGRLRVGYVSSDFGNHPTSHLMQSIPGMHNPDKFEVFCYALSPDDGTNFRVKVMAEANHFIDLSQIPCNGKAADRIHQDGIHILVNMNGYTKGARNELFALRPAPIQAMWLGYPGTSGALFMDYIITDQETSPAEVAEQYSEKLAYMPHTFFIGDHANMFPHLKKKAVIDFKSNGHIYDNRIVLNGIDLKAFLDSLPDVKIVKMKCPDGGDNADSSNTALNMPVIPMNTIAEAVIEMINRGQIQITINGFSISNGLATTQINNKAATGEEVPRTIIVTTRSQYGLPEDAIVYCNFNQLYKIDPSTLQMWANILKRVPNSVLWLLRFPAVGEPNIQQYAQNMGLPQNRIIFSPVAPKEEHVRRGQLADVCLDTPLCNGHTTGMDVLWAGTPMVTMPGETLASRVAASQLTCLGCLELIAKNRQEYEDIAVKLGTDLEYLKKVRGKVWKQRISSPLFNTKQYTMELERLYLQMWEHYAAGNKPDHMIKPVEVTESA

- effect of a mutation on the interaction: with no effect
Substance: Methylcytosine dioxygenase TET2 (Homo sapiens), Q6N021-1 H1382Y;D1384A

— IntAct's records for PubMed 23222540
